What was measured:
Assay in all cases: cell-based or functional assay
[1] = target: gp41 of HIV-1 strain CC 1/85 (HIV-1 strain CC 1/85)
[2] = target: gp41 of HIV-1 strain NL4-3 (HIV-1 strain NL4-3)
[3] = target: gp41 of HIV-1 strain DJ258 (HIV-1 strain DJ258)
[4] = target: gp41 of HIV-1 strain HC4 (HIV-1 strain HC4)

T-20 (peptide)
Inhibition of HIV-1 infectivity, IC50 (nM), CC 1/85 [1]: 1400 nM
Inhibition of HIV-1 infectivity, IC50 (nM), NL4-3 [2]: 700 nM
Inhibition of HIV-1 infectivity, IC50 (nM), DJ258 [3]: 330 nM
Inhibition of HIV-1 infectivity, IC50 (nM), HC4 [4]: 250 nM

— patent US20130177981A1
